Holding throughout (settings): both partners purified
Experiment [1] deals with T1, HAstV8 capsid spike (Spike 8) fused to a 10x histidine tag (Human astrovirus 8 (HAstV-8), Q9IFX1, UniProt Q9IFX1).
T1 construct: HAstV serotype 8 capsid spike protein, amino acids 429 to 647 of the capsid protein (UniProtKB entry Q9IFX1); A thrombin cleavage site stands between the spike and the C-terminal 10-histidine tag (pET52b); Captured on Anti-Penta-His sensors by the tag; also called His-tagged Spike 8; HAstV serotype 8 capsid spike protein; not shown: His10, C-terminal, kept
T1 sequence (Q9IFX1 429-647, one chain of several): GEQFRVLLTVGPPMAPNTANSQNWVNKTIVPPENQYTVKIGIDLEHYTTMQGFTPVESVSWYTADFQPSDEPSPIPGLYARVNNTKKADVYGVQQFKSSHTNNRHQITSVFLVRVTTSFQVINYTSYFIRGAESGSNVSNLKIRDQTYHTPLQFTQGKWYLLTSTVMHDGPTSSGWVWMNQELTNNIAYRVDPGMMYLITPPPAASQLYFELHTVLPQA
The experiment is described as follows: BLI; His-tagged Spike 8 (0.5 ug/ml) loaded on Anti-Penta-His (HIS1K) biosensors; scFv as analyte in six 1:2 serial dilutions (from 80 nM scFv 3E8 or 20 nM scFv 2D9); PBS pH 7.4, 2% BSA, 0.09% Tween 20; 22 C; global 1:1 fit; mean of triplicate assays.

The target in experiment [2] is T2, HAstV8 capsid spike (Spike 8), purification tag removed by thrombin (human astrovirus serotype 8 (HAstV8), UniProt Q9IFX1).
T2 construct: HAstV serotype 8 capsid spike protein, amino acids 429 to 647 of the capsid protein (UniProtKB entry Q9IFX1); Same construct as m1 after thrombin digestion; residues of the thrombin site may remain at the C-terminus; source: tag removed with thrombin during complex formation; not shown: His10, C-terminal, cleaved
T2 sequence (Q9IFX1 429-647): as the sequence (Q9IFX1 429-647, one chain of several) above
The experiment is described as follows: SEC; 3.5 molar excess scFv 2D9 with Spike 8 overnight at 4 C, tags removed with thrombin; Superdex 200 in TBS pH 8.0; coeluted at apparent ~105 kDa against gel filtration standards; data not shown. For orientation: In gel filtration, larger molecules generally elute earlier.

Experiment [3] addresses T2, HAstV8 capsid spike (Spike 8), …. Put plainly: SEC; 3 molar excess scFv 3E8 with Spike 8 overnight at 4 C, tags removed with thrombin; Superdex 200 in TBS pH 7.2; coeluted at apparent ~105 kDa against gel filtration standards; data not shown.

B1: scFv 2D9 (single-chain variable fragment of mouse monoclonal antibody 2D9) (scFv, V domains shown)
VH: QVQLKQSGPGLVQPSQSLSITCTVSGFSLTSYGVHWVRQSPGKGLEWLGVIWSGGSTDYNAAFISRLSISKDNSKSQVFFKMNSLQANDTAIYYCARNSLLDAMDYWGQGTSVTVSS
VL: SIVMTQTPKFLLVSAGDRVTITCKASQSVSNAVAWYQQKPGQSPKLLIYYASNRYTGVPDRFTGSGYGTDFTFTISTVQAEDLAVYFCQQDYSSPLTFGAGTKLELK
notes: 2D9 kappa chain variable region; GGS(GGGGS)3 linker; 2D9 heavy chain variable region; A thrombin cleavage site stands between the scFv and the C-terminal Twin Strep-tag; source: D. melanogaster Schneider 2 (S2) cells, stably transfected, secreted, purified (StrepTrap HP)
A word on the Kd: it is the constant that tells how readily two partners part at equilibrium. A lower Kd goes with tighter binding. Turning to B1, the dissociation constant (Kd) in experiment [1] stood at 0.00245 nM.

B2: scFv 2D9, purification tag removed by thrombin (scFv, V domains shown)
VH: QVQLKQSGPGLVQPSQSLSITCTVSGFSLTSYGVHWVRQSPGKGLEWLGVIWSGGSTDYNAAFISRLSISKDNSKSQVFFKMNSLQANDTAIYYCARNSLLDAMDYWGQGTSVTVSS
VL: SIVMTQTPKFLLVSAGDRVTITCKASQSVSNAVAWYQQKPGQSPKLLIYYASNRYTGVPDRFTGSGYGTDFTFTISTVQAEDLAVYFCQQDYSSPLTFGAGTKLELK
notes: 2D9 kappa chain variable region, as in m5; GGS(GGGGS)3 linker; 2D9 heavy chain variable region, as in m5; Same construct as m5 after thrombin digestion; source: D. melanogaster Schneider 2 (S2) cells, stably transfected, secreted, purified (StrepTrap HP); tag removed with thrombin during complex formation; not shown: Twin Strep-tag, C-terminal, cleaved
One may read the stoichiometry N as a count of units in the complex or per binding partner. Turning to B2, the “stoichiometry N” value in experiment [2] is 1 scFv per Spike 8 protomer (2:2 complex).

B3: scFv 3E8 (single-chain variable fragment of mouse monoclonal antibody 3E8) (scFv, V domains shown)
VH: DVQLQESGPGLVKPSQSLSLTCSVTGYSITSGYYWNWIRQFPGNKLEWMGYISYDGSNNYNPSLKNRISITRDTSKNQFFLKLNSVTTEDTATYYCATFYDGYDYWGQGTTLTVSS
VL: DIVMTQSHKFMSTSVGDRVSITCKASQDVSTAVAWYQQKPGQSPKLLIYWASTRHTGVPDRFTGSGSGTDYTLTISSVQAEDLALYYCQQHYSTPFTFGSGTKLEIK
notes: 3E8 kappa chain variable region; GGS(GGGGS)3 linker; 3E8 heavy chain variable region; A thrombin cleavage site stands between the scFv and the C-terminal Twin Strep-tag; source: CHO-S cells (electroporated), secreted, purified (StrepTrap HP)
Take B3: the dissociation constant (Kd) in experiment [1] was determined as 40 nM.

B4: scFv 3E8, purification tag removed by thrombin (scFv, V domains shown)
VH: DVQLQESGPGLVKPSQSLSLTCSVTGYSITSGYYWNWIRQFPGNKLEWMGYISYDGSNNYNPSLKNRISITRDTSKNQFFLKLNSVTTEDTATYYCATFYDGYDYWGQGTTLTVSS
VL: DIVMTQSHKFMSTSVGDRVSITCKASQDVSTAVAWYQQKPGQSPKLLIYWASTRHTGVPDRFTGSGSGTDYTLTISSVQAEDLALYYCQQHYSTPFTFGSGTKLEIK
notes: 3E8 kappa chain variable region, as in m3; GGS(GGGGS)3 linker; 3E8 heavy chain variable region, as in m3; Same construct as m3 after thrombin digestion; source: CHO-S cells (electroporated), secreted, purified (StrepTrap HP); tag removed with thrombin during complex formation; not shown: Twin Strep-tag, C-terminal, cleaved
On to B4, for which, in experiment [3], the “stoichiometry N” value is 1 scFv per Spike 8 protomer (2:2 complex).

Values taken from publication PMC8754201, “Structures of Two Human Astrovirus Capsid/Neutralizing Antibody Complexes Reveal Distinct Epitopes and Inhibition of Virus Attachment to Cells” (Journal of Virology, 2021).
